Laboratory results from patent EP4667483A1 (JCR Pharmaceuticals Co., Ltd., dated 2024).
Numbered stars: 1 amine (or outer) side, 2 acyl side, 3 side chain; on linkers, the order of the positions; unused ones are H or OH. Bridge positions count the residues as written; N and C are the ends. Square brackets hold non-standard residues; d marks the D form. Primed or numbered codes have the meaning given here. Ends that are not written are not given here. * marks the point of attachment. F4aao = 4-(carboxymethoxy)-L-phenylalanine, O=C([C@H](Cc1ccc(OCC(=O)[*:3])cc1)N[*:1])[*:2]; NH(1-deoxy-D-glucityl) = OC[C@@H](O)[C@@H](O)[C@H](O)[C@@H](O)CN*; PEG4c = amino-tetraoxa (PEG4) carboxylic acid spacer; NMePhe(4-COOH) = CN[C@@H](Cc1ccc(C(=O)O)cc1)C(=O)O; Tyr(Me) = COc1ccc(C[C@H](N[*:1])C(=O)[*:2])cc1; NMePhe(3-Cl) = CN[C@@H](Cc1cccc(Cl)c1)C(=O)O; Piperazinyl(4-CH2COOH) = O=C(O)CN1CCN(*)CC1; 3Pal(6-NH2) = Nc1ccc(C[C@H](N)C(=O)O)cn1; NMeW = CN[C@@H](Cc1c[nH]c2ccccc12)C(=O)O; Lys(N3) = [N-]=[N+]=NCCCC[C@H](N)C(=O)O; NMeY = CN[C@@H](Cc1ccc(O)cc1)C(=O)O; Nva(3-Et) = CCC(CC)[C@H](N)C(=O)O; NMeF = CN[C@@H](Cc1ccccc1)C(=O)O; F3COO(PEG4c) = not defined here; PEG4c(3) = PEG4 linker acid; PEG4c″ = not defined here

B1: 894_3498 (peptide)
peptide: AVXVXNXYIIKRYXC
modifications: as printed: A-V-MeF-V-MeW-N-3Py6NH2-Y-I-I-K-R-Y-MeF4COO-C; linker G-de-de-de-ds-ds-KN3-NH2; cyclic (ClAc-Ala1 thioether to Cys15)
B2: 894_0602 (peptide)
peptide: AVXVXNXYIIKRYXC
modifications: not fully specified; as printed: A-V-MeF-V-MeW-N-3Py6NH2-Y-I-I-K-R-Y-MeY-C; linker PEG4c; cyclic (ClAc-Ala1 thioether to Cys15)
B3: 894_0620 (peptide)
peptide: {CH2CO}-AV[NMePhe(3-Cl)]V[NMeW]N[3Pal(6-NH2)]YI[code s]KRY[NMeY]C
modifications: thioether N-15; also: linker PEG4c attached, place not given here
notes: Position 10 is printed as lower-case 's'
B4: 894_0619 (peptide)
peptide: {CH2CO}-AV[NMeF]V[NMeW]N[3Pal(6-NH2)]YI[code s]KRY[NMeY]C
modifications: thioether N-15; also: linker PEG4c attached, place not given here
notes: as for B3
B5: 894_3435 (peptide)
peptide: AVXVWNYYIIXRYXC
modifications: as printed: A-V-MeF-V-W-N-Y-Y-I-I-E(PEG8Me)-R-Y-MeY-C; linker G-KN3; cyclic (ClAc-Ala1 thioether to Cys15)
B6: 894_0616 (peptide)
peptide: AVXVXNYYXIKRYXC
modifications: as printed: A-V-Me3Py-V-MeW-N-Y-Y-Eva-I-K-R-Y-MeY-C; linker PEG4c; cyclic (ClAc-Ala1 thioether to Cys15)
B7: 894_3436 (peptide)
peptide: AVXVWNYYIIRRXXC
modifications: as printed: A-V-MeF-V-W-N-Y-Y-I-I-R-R-F3COO(PEG8Me)-MeY-C; linker G-KN3; cyclic (ClAc-Ala1 thioether to Cys15)
B8: 894_0601 (peptide)
peptide: AVXVWNXYIIKRYXC
modifications: not fully specified; as printed: A-V-MeF-V-W-N-3Py6NH2-Y-I-I-K-R-Y-MeY-C; linker PEG4c; cyclic (ClAc-Ala1 thioether to Cys15)
B9: 894_0615 (peptide)
peptide: AVXVXNYYIIKRYXC
modifications: as printed: A-V-Me3Py-V-MeW-N-Y-Y-I-I-K-R-Y-MeY-C; linker PEG4c; cyclic (ClAc-Ala1 thioether to Cys15)
B10: 894_3488 (peptide)
peptide: AVXVXNYYIIKRXXC
modifications: as printed: A-V-MeF-V-MeW-N-Y-Y-I-I-K-R-F3COO(PEG4c)-MeF4COO-C; linker G-KN3-NH2; cyclic (ClAc-Ala1 thioether to Cys15)
B11: 894_0607 (peptide)
peptide: AVXVXNYYIIKRXXC
modifications: not fully specified; as printed: A-V-MeF3C-V-W1Me-N-Y-Y-I-I-K-R-4Py-MeY-C; linker PEG4c; cyclic (ClAc-Ala1 thioether to Cys15)
B12: 894_0636 (peptide)
peptide: AVXVXNYXIIKRFXC
modifications: as printed: A-V-MeF3C-V-MeW-N-Y-F4OMe-I-I-K-R-F-MeY-C; linker PEG4c-NH2; cyclic (ClAc-Ala1 thioether to Cys15)
B13: 894_0637 (peptide)
peptide: AVXVXNYXIIQRFXC
modifications: as printed: A-V-MeF3C-V-MeW-N-Y-F4OMe-I-I-Q-R-F-MeY-C; linker PEG4c-NH2; cyclic (ClAc-Ala1 thioether to Cys15)
B14: 894_3486 (peptide)
peptide: {CH2CO}-AV[NMeF]V[NMeW]N[3Pal(6-NH2)]YIIKRY[NMePhe(4-COOH)]CG[Lys(N3)]-NH2
modifications: thioether N-15
SMILES: CC[C@H](C)[C@@H]1NC(=O)[C@H](Cc2ccc(O)cc2)NC(=O)[C@H](Cc2ccc(N)nc2)NC(=O)[C@H](CC(N)=O)NC(=O)[C@H](Cc2c[nH]c3ccccc23)N(C)C(=O)[C@H](C(C)C)NC(=O)[C@H](Cc2ccccc2)N(C)C(=O)[C@H](C(C)C)NC(=O)[C@H](C)NC(=O)CSC[C@@H](C(=O)NCC(=O)N[C@@H](CCCCN=[N+]=[N-])C(N)=O)NC(=O)[C@H](Cc2ccc(C(=O)O)cc2)N(C)C(=O)[C@H](Cc2ccc(O)cc2)NC(=O)[C@H](CCCNC(=N)N)NC(=O)[C@H](CCCCN)NC(=O)[C@H]([C@@H](C)CC)NC1=O

Columns and labels:
[1] = biological target: T1, human transferrin receptor (hTfR) (human, UniProt P02786 89-760); assay: SPR (Biacore T200), pH 7.4, hTfR on chip
T1 construct: Recombinant hTfR; at pH 7.4 captured on the chip by an anti-His tag antibody, at pH 6.0 immobilized on an NTA chip, so it carries a His tag; also called human TfR; TfR1
T1 sequence (P02786 89-760 limits assumed): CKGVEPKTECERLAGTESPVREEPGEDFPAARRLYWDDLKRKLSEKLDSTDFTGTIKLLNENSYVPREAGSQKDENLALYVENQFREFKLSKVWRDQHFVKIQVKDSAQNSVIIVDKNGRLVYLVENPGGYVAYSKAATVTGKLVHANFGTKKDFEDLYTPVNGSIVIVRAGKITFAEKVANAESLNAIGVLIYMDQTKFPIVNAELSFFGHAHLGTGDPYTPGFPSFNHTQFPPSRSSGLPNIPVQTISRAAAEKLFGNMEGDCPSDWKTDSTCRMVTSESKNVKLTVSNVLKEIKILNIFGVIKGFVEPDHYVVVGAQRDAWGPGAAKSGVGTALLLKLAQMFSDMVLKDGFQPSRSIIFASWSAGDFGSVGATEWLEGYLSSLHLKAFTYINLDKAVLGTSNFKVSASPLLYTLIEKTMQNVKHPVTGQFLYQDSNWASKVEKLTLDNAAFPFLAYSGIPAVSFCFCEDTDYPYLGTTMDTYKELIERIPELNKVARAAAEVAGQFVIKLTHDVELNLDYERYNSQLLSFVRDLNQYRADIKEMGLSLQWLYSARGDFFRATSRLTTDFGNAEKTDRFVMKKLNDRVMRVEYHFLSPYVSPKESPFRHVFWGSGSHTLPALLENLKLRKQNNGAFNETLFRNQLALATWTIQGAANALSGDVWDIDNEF

[2] = biological target: T1, human transferrin receptor (hTfR); assay: SPR, KD at pH 6.0 over KD at pH 7.4
[3] = biological target: T1, human transferrin receptor (hTfR); assay: SPR, koff at pH 6.0 over koff at pH 7.4
[4] = biological target: T1, human transferrin receptor (hTfR); assay: SPR (Biacore T200), pH 6.0, hTfR on chip
[5] = biological target: T1, human transferrin receptor (hTfR); assay: SPR (Biacore T200), pH 7.4, hTfR on chip; remark: listed apart in the source
[6] = biological target: T1, human transferrin receptor (hTfR); assay: SPR, koff at pH 6.0 over koff at pH 7.4; remark: listed apart in the source
[7] = biological target: T1, human transferrin receptor (hTfR); assay: SPR, KD at pH 6.0 over KD at pH 7.4; remark: listed apart in the source
[8] = biological target: T1, human transferrin receptor (hTfR); assay: SPR (Biacore T200), pH 6.0, hTfR on chip; remark: listed apart in the source
[9] = biological target: T2, human transferrin receptor (hTfR) (human, UniProt P02786 89-760); assay: SPR, pH 6.0
T2 construct: a His tag is implied by the NTA chip and the anti-His capture; also called human TfR; TfR1
T2 sequence (P02786 89-760 limits assumed): as above

[10] = biological target: T2, human transferrin receptor (hTfR); assay: SPR, KD pH 6.0 / KD pH 7.4
[11] = biological target: T2, human transferrin receptor (hTfR); assay: SPR, koff pH 6.0 / koff pH 7.4
[12] = biological target: T2, human transferrin receptor (hTfR); assay: SPR, pH 7.4
[13] = biological target: T1, human transferrin receptor (hTfR); assay: SPR (Biacore T200), pH 6.0, hTfR on chip; remark: listed apart in the source
[14] = biological target: T1, human transferrin receptor (hTfR); assay: SPR, KD at pH 6.0 over KD at pH 7.4; remark: listed apart in the source
[15] = biological target: T1, human transferrin receptor (hTfR); assay: SPR, koff at pH 6.0 over koff at pH 7.4; remark: listed apart in the source
[16] = biological target: T1, human transferrin receptor (hTfR); assay: SPR (Biacore T200), pH 7.4, hTfR on chip; remark: listed apart in the source

Row | Binder | Kd [5] [nM] | dependency koff pH6.0/7.4 [6] | dependency KD pH6.0/7.4 [7] | Kd [8] [nM] | other results
1 | B1 |  |  |  |  | Kd [1]: 18.8 nM; dependency KD pH6.0/7.4 [2]: 7.71; dependency koff pH6.0/7.4 [3]: 10.8; Kd [4]: 145 nM
2 | B2 | 6.37 | 6.5 | 2.97 | 18.9 | 
3 | B3 | 4.97 | 12.5 | 3.26 | 16.2 | 
4 | B4 | 27.6 | 12.2 | 4.57 | 126 | 
5 | B5 | 11.6 | 6.89 | 3.55 | 41.2 | 
6 | {CH2CO}-AV[NMeF]V[NMeW]N[3Pal(6-NH2)]YIIKRY[NMePhe(4-COOH)]C (thioether N-15; not fully specified (C-terminus)) [894_0604] | 3.51 | 7.83 | 4.76 | 16.7 | 
7 | B6 | 41.7 | 3.41 | 1.22 | 50.8 | 
8 | B7 | 2 | 5.75 | 3.36 | 6.72 | 
9 | {CH2CO}-AV[NMeF]VWNRYIIRR[F3COO(PEG4c)][NMePhe(4-COOH)]CG[Lys(N3)]-NH2 (thioether N-15; reading uncertain) [894_3491] |  |  |  |  | Kd [1]: 214 nM; dependency KD pH6.0/7.4 [2]: 3.73; dependency koff pH6.0/7.4 [3]: 2.44; Kd [4]: 799 nM
10 | {CH2CO}-AV[NMeF]VWN[3Pal(6-NH2)]YIIKRY[NMePhe(4-COOH)]C (thioether N-15; not fully specified (C-terminus)) [894_0603] | 7.31 | 11.3 | 4.79 | 35 | 
11 | B8 | 5.3 | 8.89 | 3.28 | 17.4 | 
12 | B9 | 16.6 | 2.87 | 0.92 | 15.3 | 
13 | {CH2CO}-AV[NMePhe(3-Cl)]VWNY[F4aao](Piperazinyl(4-CH2COOH))IIE(NH(1-deoxy-D-glucityl))QF[NMeY]C-{PEG4c-NH2} (thioether N-15) [894_0510 (SEQ ID NO: 37)] |  |  |  |  | Kd [9]: 27.9 nM; dependency KD pH6.0/7.4 [10]: 18.1; dependency koff pH6.0/7.4 [11]: 33.9; Kd [12]: 1.54 nM
14 | B10 |  |  |  |  | Kd [1]: 1.6 nM; dependency KD pH6.0/7.4 [2]: 3.22; dependency koff pH6.0/7.4 [3]: 5.15; Kd [4]: 5.15 nM
15 | B11 | 0.546 | 7.49 | 3.74 | 2.04 | 
16 | {CH2CO}-AV[NMePhe(3-Cl)]V[NMeW]NY[F4aao]IIKRF[NMeY]C-{PEG4c(3)-NH2} (thioether N-15) [894_0644] |  |  |  |  | Kd [13]: 0.764 nM; dependency KD pH6.0/7.4 [14]: 2.37; dependency koff pH6.0/7.4 [15]: 4.92; Kd [16]: 0.322 nM
17 | {CH2CO}-AV[NMePhe(3-Cl)]V[NMeW]NY[F4aao]IIKRF[NMePhe(4-COOH)](PEG4c(3))C-{PEG4c(3)-NH2} (thioether N-15) [894_0647] |  |  |  |  | Kd [13]: 0.76 nM; dependency KD pH6.0/7.4 [14]: 5.35; dependency koff pH6.0/7.4 [15]: 9.27; Kd [16]: 0.142 nM
18 | {CH2CO}-AV[NMeF]V[NMeW]NYY[Nva(3-Et)]IKRY[NMePhe(4-COOH)]C (thioether N-15; not fully specified (C-terminus)) [894_0593] | 3.61 | 3.72 | 2.64 | 9.52 | 
19 | {CH2CO}-AV[NMeF]V[NMeW]NYY[Nva(3-Et)]SKRY[NMeY]C (thioether N-15; not fully specified (C-terminus)) [894_0611] | 30.4 | 4.83 | 2.18 | 66.3 | 
20 | {CH2CO}-AV[NMePhe(3-Cl)]V[NMeW]NYY[Nva(3-Et)]SKRY[NMeY]C (thioether N-15; not fully specified (C-terminus)) [894_0612] | 5.67 | 6.71 | 2.33 | 13.2 | 
21 | B12 |  |  |  |  | Kd [13]: 0.81 nM; dependency KD pH6.0/7.4 [14]: 3.58; dependency koff pH6.0/7.4 [15]: 5.55; Kd [16]: 0.226 nM
22 | {CH2CO}-AV[NMePhe(3-Cl)]V[NMeW]NR[Tyr(Me)]IIKRF[NMeY]C-{PEG4c″-NH2} (thioether N-15; reading uncertain) [894_0641] |  |  |  |  | Kd [13]: 13.3 nM; dependency KD pH6.0/7.4 [14]: 3.49; dependency koff pH6.0/7.4 [15]: 3.44; Kd [16]: 3.81 nM
23 | B13 |  |  |  |  | Kd [13]: 4.86 nM; dependency KD pH6.0/7.4 [14]: 5.66; dependency koff pH6.0/7.4 [15]: 9.23; Kd [16]: 0.859 nM
24 | {CH2CO}-AV[NMePhe(3-Cl)]V[NMeW]NR[Tyr(Me)]IIQRF[NMeY]C-{PEG4c(3)-NH2} (thioether N-15) [894_0642] |  |  |  |  | Kd [13]: 75.5 nM; dependency KD pH6.0/7.4 [14]: 3.67; dependency koff pH6.0/7.4 [15]: 4.85; Kd [16]: 20.6 nM
25 | B14 |  |  |  |  | Kd [1]: 2.94 nM; dependency KD pH6.0/7.4 [2]: 4.73; dependency koff pH6.0/7.4 [3]: 8.92; Kd [4]: 13.9 nM
